Reference: patent US20180155451A1 (published 2018)

B1: GpH7-A5/GpH7-B3 variant G236_03V/GpL16-k0 (antibody, human IgG1, kappa)
heavy 1: not shown
heavy 2: not shown
light: DIVMTQSPLSLPVTPGEPASISCQASESLVHSNRNTYLHWYLQKPGQSPQLLIYKVSNRFSGVPDRFSGSGSGTDFTLKISRVEAEDVGVYYCSQNTHVPPTFGQGTKVEIERTVAAPSVFIFPPSDEQLKSGTASVVCLLNNFYPREAKVQWKVDNALQSGNSQESVTEQDSKDSTYSLSSTLTLSKADYEKHKVYACEVTHQGLSSPVTKSFNRGEC
notes: Heterodimerized IgG1, mutation in the GpH7-B3 chain only; also called He Ab
B2: GpH7-A5/GpH7-B3 variant G236_13S/GpL16-k0 (antibody, human IgG1, kappa)
heavy 1: not shown
heavy 2: not shown
light: DIVMTQSPLSLPVTPGEPASISCQASESLVHSNRNTYLHWYLQKPGQSPQLLIYKVSNRFSGVPDRFSGSGSGTDFTLKISRVEAEDVGVYYCSQNTHVPPTFGQGTKVEIERTVAAPSVFIFPPSDEQLKSGTASVVCLLNNFYPREAKVQWKVDNALQSGNSQESVTEQDSKDSTYSLSSTLTLSKADYEKHKVYACEVTHQGLSSPVTKSFNRGEC
notes: as for B1
B3: GpH7-A5/GpH7-B3 variant G236_19Q/GpL16-k0 (antibody, human IgG1, kappa)
heavy 1: not shown
heavy 2: not shown
light: DIVMTQSPLSLPVTPGEPASISCQASESLVHSNRNTYLHWYLQKPGQSPQLLIYKVSNRFSGVPDRFSGSGSGTDFTLKISRVEAEDVGVYYCSQNTHVPPTFGQGTKVEIERTVAAPSVFIFPPSDEQLKSGTASVVCLLNNFYPREAKVQWKVDNALQSGNSQESVTEQDSKDSTYSLSSTLTLSKADYEKHKVYACEVTHQGLSSPVTKSFNRGEC
notes: as for B1
B4: GpH7-A5/GpH7-B3 variant G236_05P/GpL16-k0 (antibody, human IgG1, kappa)
heavy 1: not shown
heavy 2: not shown
light: DIVMTQSPLSLPVTPGEPASISCQASESLVHSNRNTYLHWYLQKPGQSPQLLIYKVSNRFSGVPDRFSGSGSGTDFTLKISRVEAEDVGVYYCSQNTHVPPTFGQGTKVEIERTVAAPSVFIFPPSDEQLKSGTASVVCLLNNFYPREAKVQWKVDNALQSGNSQESVTEQDSKDSTYSLSSTLTLSKADYEKHKVYACEVTHQGLSSPVTKSFNRGEC
notes: as for B1
B5: GpH7-A5/GpH7-B3 variant G236_14T/GpL16-k0 (antibody, human IgG1, kappa)
heavy 1: not shown
heavy 2: not shown
light: DIVMTQSPLSLPVTPGEPASISCQASESLVHSNRNTYLHWYLQKPGQSPQLLIYKVSNRFSGVPDRFSGSGSGTDFTLKISRVEAEDVGVYYCSQNTHVPPTFGQGTKVEIERTVAAPSVFIFPPSDEQLKSGTASVVCLLNNFYPREAKVQWKVDNALQSGNSQESVTEQDSKDSTYSLSSTLTLSKADYEKHKVYACEVTHQGLSSPVTKSFNRGEC
notes: as for B1
B6: GpH7-A5/GpH7-B3 variant G236_08L/GpL16-k0 (antibody, human IgG1, kappa)
heavy 1: not shown
heavy 2: not shown
light: DIVMTQSPLSLPVTPGEPASISCQASESLVHSNRNTYLHWYLQKPGQSPQLLIYKVSNRFSGVPDRFSGSGSGTDFTLKISRVEAEDVGVYYCSQNTHVPPTFGQGTKVEIERTVAAPSVFIFPPSDEQLKSGTASVVCLLNNFYPREAKVQWKVDNALQSGNSQESVTEQDSKDSTYSLSSTLTLSKADYEKHKVYACEVTHQGLSSPVTKSFNRGEC
notes: as for B1
B7: GpH7-A5/GpH7-B3 variant G236_07I/GpL16-k0 (antibody, human IgG1, kappa)
heavy 1: not shown
heavy 2: not shown
light: DIVMTQSPLSLPVTPGEPASISCQASESLVHSNRNTYLHWYLQKPGQSPQLLIYKVSNRFSGVPDRFSGSGSGTDFTLKISRVEAEDVGVYYCSQNTHVPPTFGQGTKVEIERTVAAPSVFIFPPSDEQLKSGTASVVCLLNNFYPREAKVQWKVDNALQSGNSQESVTEQDSKDSTYSLSSTLTLSKADYEKHKVYACEVTHQGLSSPVTKSFNRGEC
notes: as for B1
B8: GpH7-A5/GpH7-B3 variant G236_15Y/GpL16-k0 (antibody, human IgG1, kappa)
heavy 1: not shown
heavy 2: not shown
light: DIVMTQSPLSLPVTPGEPASISCQASESLVHSNRNTYLHWYLQKPGQSPQLLIYKVSNRFSGVPDRFSGSGSGTDFTLKISRVEAEDVGVYYCSQNTHVPPTFGQGTKVEIERTVAAPSVFIFPPSDEQLKSGTASVVCLLNNFYPREAKVQWKVDNALQSGNSQESVTEQDSKDSTYSLSSTLTLSKADYEKHKVYACEVTHQGLSSPVTKSFNRGEC
notes: as for B1
B9: GpH7-A5/GpH7-B3 variant G236_06M/GpL16-k0 (antibody, human IgG1, kappa)
heavy 1: not shown
heavy 2: not shown
light: DIVMTQSPLSLPVTPGEPASISCQASESLVHSNRNTYLHWYLQKPGQSPQLLIYKVSNRFSGVPDRFSGSGSGTDFTLKISRVEAEDVGVYYCSQNTHVPPTFGQGTKVEIERTVAAPSVFIFPPSDEQLKSGTASVVCLLNNFYPREAKVQWKVDNALQSGNSQESVTEQDSKDSTYSLSSTLTLSKADYEKHKVYACEVTHQGLSSPVTKSFNRGEC
notes: as for B1
B10: GpH7-A5/GpH7-B3 variant L234_01G/GpL16-k0 (antibody, human IgG1, kappa)
heavy 1: not shown
heavy 2: not shown
light: DIVMTQSPLSLPVTPGEPASISCQASESLVHSNRNTYLHWYLQKPGQSPQLLIYKVSNRFSGVPDRFSGSGSGTDFTLKISRVEAEDVGVYYCSQNTHVPPTFGQGTKVEIERTVAAPSVFIFPPSDEQLKSGTASVVCLLNNFYPREAKVQWKVDNALQSGNSQESVTEQDSKDSTYSLSSTLTLSKADYEKHKVYACEVTHQGLSSPVTKSFNRGEC
notes: as for B1
B11: GpH7-A5/GpH7-B3 variant G236_12R/GpL16-k0 (antibody, human IgG1, kappa)
heavy 1: not shown
heavy 2: not shown
light: DIVMTQSPLSLPVTPGEPASISCQASESLVHSNRNTYLHWYLQKPGQSPQLLIYKVSNRFSGVPDRFSGSGSGTDFTLKISRVEAEDVGVYYCSQNTHVPPTFGQGTKVEIERTVAAPSVFIFPPSDEQLKSGTASVVCLLNNFYPREAKVQWKVDNALQSGNSQESVTEQDSKDSTYSLSSTLTLSKADYEKHKVYACEVTHQGLSSPVTKSFNRGEC
notes: as for B1
B12: GpH7-A5/GpH7-B3 variant G236_16H/GpL16-k0 (antibody, human IgG1, kappa)
heavy 1: not shown
heavy 2: not shown
light: DIVMTQSPLSLPVTPGEPASISCQASESLVHSNRNTYLHWYLQKPGQSPQLLIYKVSNRFSGVPDRFSGSGSGTDFTLKISRVEAEDVGVYYCSQNTHVPPTFGQGTKVEIERTVAAPSVFIFPPSDEQLKSGTASVVCLLNNFYPREAKVQWKVDNALQSGNSQESVTEQDSKDSTYSLSSTLTLSKADYEKHKVYACEVTHQGLSSPVTKSFNRGEC
notes: as for B1
B13: GpH7-A5/GpH7-B3 variant G236_20W/GpL16-k0 (antibody, human IgG1, kappa)
heavy 1: not shown
heavy 2: not shown
light: DIVMTQSPLSLPVTPGEPASISCQASESLVHSNRNTYLHWYLQKPGQSPQLLIYKVSNRFSGVPDRFSGSGSGTDFTLKISRVEAEDVGVYYCSQNTHVPPTFGQGTKVEIERTVAAPSVFIFPPSDEQLKSGTASVVCLLNNFYPREAKVQWKVDNALQSGNSQESVTEQDSKDSTYSLSSTLTLSKADYEKHKVYACEVTHQGLSSPVTKSFNRGEC
notes: as for B1
B14: GpH7-A5/GpH7-B3 variant G236_04F/GpL16-k0 (antibody, human IgG1, kappa)
heavy 1: not shown
heavy 2: not shown
light: DIVMTQSPLSLPVTPGEPASISCQASESLVHSNRNTYLHWYLQKPGQSPQLLIYKVSNRFSGVPDRFSGSGSGTDFTLKISRVEAEDVGVYYCSQNTHVPPTFGQGTKVEIERTVAAPSVFIFPPSDEQLKSGTASVVCLLNNFYPREAKVQWKVDNALQSGNSQESVTEQDSKDSTYSLSSTLTLSKADYEKHKVYACEVTHQGLSSPVTKSFNRGEC
notes: as for B1

Legend:
FcγRIIb = target: T1, FcγRIIb (human, UniProt P31994 43-217); assay: SPR (Biacore), antibody captured, FcγR as analyte; binding relative to GpH7-A5/GpH7-B3/GpL16-k0 = 100
T1 construct: extracellular domain; also called FcgRIIb; 2b; not shown: His tag attached to the C terminus
T1 sequence (looked up): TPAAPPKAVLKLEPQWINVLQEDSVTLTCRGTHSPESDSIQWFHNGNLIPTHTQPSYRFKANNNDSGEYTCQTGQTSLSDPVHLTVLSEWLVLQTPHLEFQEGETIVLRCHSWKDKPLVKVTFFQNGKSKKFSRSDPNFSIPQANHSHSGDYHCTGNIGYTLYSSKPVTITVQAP

FcγRIIa H [1] = target: T2, FcγRIIa H (human, UniProt P12318 34-217); assay: as above
T2 construct: extracellular domain; also called FcgRIIa H; FcγRIIa type H; not shown: His tag attached to the C terminus
T2 sequence (looked up): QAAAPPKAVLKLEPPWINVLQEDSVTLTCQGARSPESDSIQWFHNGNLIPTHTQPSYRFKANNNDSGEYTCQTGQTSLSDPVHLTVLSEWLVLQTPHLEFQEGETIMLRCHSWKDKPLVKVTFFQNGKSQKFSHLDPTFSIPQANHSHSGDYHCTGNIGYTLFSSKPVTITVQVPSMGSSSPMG

FcγRIIa H [2] = target: T2, FcγRIIa H; assay: ratio of He/Con_2aH to He/Con_2b (relative SPR binding to FcγRIIa H over FcγRIIb)

| Binder | He/Con_2b (FcγRIIb) | He/Con_2aH (FcγRIIa H [1]) | He_2aH/2b (IIaH/IIb) (FcγRIIa H [2]) |
| --- | --- | --- | --- |
| B1 | 35.3 control = 100 | 119 control = 100 | 3.39 |
| B2 | 96.7 control = 100 | 135 control = 100 | 1.39 |
| B3 | 46.6 control = 100 | 89.1 control = 100 | 1.91 |
| B4 | 19 control = 100 | 63.5 control = 100 | 3.34 |
| B5 | 57.8 control = 100 | 103 control = 100 | 1.79 |
| B6 | 26.8 control = 100 | 75.8 control = 100 | 2.83 |
| B7 | 31 control = 100 | 115 control = 100 | 3.72 |
| B8 | 39.5 control = 100 | 136 control = 100 | 3.45 |
| B9 | 45.5 control = 100 | 85.7 control = 100 | 1.88 |
| B10 | 50.7 control = 100 | 75.6 control = 100 | 1.49 |
| B11 | 6.8 control = 100 | 34.2 control = 100 | 5.04 |
| B12 | 27.9 control = 100 | 98.2 control = 100 | 3.51 |
| B13 | 58.2 control = 100 | 147 control = 100 | 2.52 |
| B14 | 39.3 control = 100 | 118 control = 100 | 3 |
